Data as given in article PMC12749308 (Nature Communications, 2025).
Like-named read-outs stand apart in the source and are kept apart here.

Experiments:
[1] = biological target: T1, hPLD3 luminal domain H201A/H416A (hPLD3_HA) (Homo sapiens, UniProt Q8IV08 61-490, H201A;H416A); assay: EMSA
T1 sequence: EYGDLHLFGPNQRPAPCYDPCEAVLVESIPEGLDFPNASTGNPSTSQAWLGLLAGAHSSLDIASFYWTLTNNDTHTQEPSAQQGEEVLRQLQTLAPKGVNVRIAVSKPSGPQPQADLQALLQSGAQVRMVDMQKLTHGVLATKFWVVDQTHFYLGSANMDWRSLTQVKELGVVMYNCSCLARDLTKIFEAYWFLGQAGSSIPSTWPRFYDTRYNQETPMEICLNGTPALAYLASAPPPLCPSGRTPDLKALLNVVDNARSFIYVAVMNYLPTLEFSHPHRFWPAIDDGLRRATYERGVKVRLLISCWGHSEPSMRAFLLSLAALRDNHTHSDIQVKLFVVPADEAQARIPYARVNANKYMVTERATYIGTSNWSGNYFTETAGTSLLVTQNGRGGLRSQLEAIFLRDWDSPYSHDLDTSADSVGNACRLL

cryo-EM structure [2] = biological target: the molecule itself; assay: cryo-EM structure
cryo-EM structure [3] = biological target: the molecule itself; assay: cryo-EM structure; remark: listed apart in the source

B1: Substrate-I (49 nt) (ssDNA)
DNA: ACGTTCCTGATGCTAAGTATGCACTTCATCGTCAAGCAATGCTATGCAT
- binding result [1]: binds

B2: human PLD3 luminal domain, wild type (domain or fragment, UniProt Q8IV08 61-490, looked up)
chain: EYGDLHLFGPNQRPAPCYDPCEAVLVESIPEGLDFPNASTGNPSTSQAWLGLLAGAHSSLDIASFYWTLTNNDTHTQEPSAQQGEEVLRQLQTLAPKGVNVRIAVSKPSGPQPQADLQALLQSGAQVRMVDMQKLTHGVLHTKFWVVDQTHFYLGSANMDWRSLTQVKELGVVMYNCSCLARDLTKIFEAYWFLGQAGSSIPSTWPRFYDTRYNQETPMEICLNGTPALAYLASAPPPLCPSGRTPDLKALLNVVDNARSFIYVAVMNYLPTLEFSHPHRFWPAIDDGLRRATYERGVKVRLLISCWGHSEPSMRAFLLSLAALRDNHTHSDIQVKLFVVPADEAQARIPYARVNHNKYMVTERATYIGTSNWSGNYFTETAGTSLLVTQNGRGGLRSQLEAIFLRDWDSPYSHDLDTSADSVGNACRLL
modifications: four N-linked glycans observed in the cryo-EM structure (all sites except Asn97)
- stoichiometry N (cryo-EM structure [2]): 2

B3: human PLD4 luminal domain, wild type (domain or fragment, UniProt Q96BZ4 91-506, looked up)
chain: RDSCQLVLVESIPQDLPSAAGSPSAQPLGQAWLQLLDTAQESVHVASYYWSLTGPDIGVNDSSSQLGEALLQKLQQLLGRNISLAVATSSPTLARTSTDLQVLAARGAHVRQVPMGRLTRGVLHSKFWVVDGRHIYMGSANMDWRSLTQVKELGAVIYNCSHLAQDLEKTFQTYWVLGVPKAVLPKTWPQNFSSHFNRFQPFHGLFDGVPTTAYFSASPPALCPQGRTRDLEALLAVMGSAQEFIYASVMEYFPTTRFSHPPRYWPVLDNALRAAAFGKGVRVRLLVGCGLNTDPTMFPYLRSLQALSNPAANVSVDVKVFIVPVGNHSNIPFSRVNHSKFMVTEKAAYIGTSNWSEDYFSSTAGVGLVVTQSPGAQPAGATVQEQLRQLFERDWSSRYAVGLDGQAPGQDCVWQG
modifications: six N-linked glycans observed in the cryo-EM structure
- stoichiometry N (cryo-EM structure [3]): 4
